Reference: paper PMC8571522, “siRNA screening identifies METTL9 as a histidine Nπ-methyltransferase that targets the proinflammatory protein S100A9” (The Journal of Biological Chemistry, 2021)

Experiments:
[1] = molecular target: T1, recombinant S100A9 prepared by cleavage of GST-S100A9, methylated in vitro by GST-METTL9 in the presence of … (mouse, UniProt P31725 1-113, Nπ-methylhistidine at His-107); test: pull-down; recombinant GST-cleaved S100A9 after an in vitro methylation reaction with GST-METTL9 in the presence or the absence of SAM, then binding to GST-S100A8 (Fig. S6); details: both partners purified
T1 construct: S100A9, mouse; methylated at His-107 by METTL9; also called de novo methylated S100A9; methylated recombinant S100A9; source: E. coli BL21-CodonPlus (DE3)-RIL, purified (Glutathione Sepharose 4B), GST removed with PreScission Protease; in vitro methylation reaction with GST-METTL9 in the presence of SAM
T1 sequence (looked up): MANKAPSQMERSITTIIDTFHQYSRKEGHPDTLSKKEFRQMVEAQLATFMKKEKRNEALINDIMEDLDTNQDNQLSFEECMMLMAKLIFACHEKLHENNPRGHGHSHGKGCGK

[2] = molecular target: T2, recombinant S100A9 prepared by cleavage of GST-S100A9, after the reaction with GST-METTL9 in the absence of … (mouse, UniProt P31725 1-113); test: as above; details: both partners purified
T2 construct: S100A9, mouse; also called GST-cleaved S100A9; mS100A9; source: E. coli BL21-CodonPlus (DE3)-RIL, purified (Glutathione Sepharose 4B), GST removed with PreScission Protease; incubated with GST-METTL9 in the absence of SAM
T2 sequence (looked up): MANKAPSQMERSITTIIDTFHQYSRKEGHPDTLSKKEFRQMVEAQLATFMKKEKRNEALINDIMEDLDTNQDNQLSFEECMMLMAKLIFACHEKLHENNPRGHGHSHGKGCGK

binding result [1]: binds
binding result [2]: binds
B1: GST-fused mouse S100A8 (natural protein, UniProt P27005 1-89, looked up)
chain: MPSELEKALSNLIDVYHNYSNIQGNHHALYKNDFKKMVTTECPQFVQNINIENLFRELDINSDNAINFEEFLAMVIKVGVASHKDSHKE
notes: S100A8, mouse; Held on glutathione beads in the pull-downs; also called GST-S100A8; mS100A8; source: E. coli BL21, purified (Glutathione Sepharose 4B)
